# T1: RXR-DBD-EKE-MYC + RAR-DBD-KEK-S-EE heterodimer (UniProt P19793; SEQ:260-356,SEQ:260-363)
# T1 chain 1: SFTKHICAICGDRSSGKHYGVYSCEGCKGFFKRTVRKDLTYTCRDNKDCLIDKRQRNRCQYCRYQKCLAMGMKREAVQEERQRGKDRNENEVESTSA
# T1 chain 2: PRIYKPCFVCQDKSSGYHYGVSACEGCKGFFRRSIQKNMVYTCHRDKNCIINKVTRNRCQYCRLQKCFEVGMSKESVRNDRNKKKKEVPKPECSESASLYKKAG
# T2: RXR-DBD-EKE-MYC (UniProt P19793 SEQ:260-356)
# T2 chain: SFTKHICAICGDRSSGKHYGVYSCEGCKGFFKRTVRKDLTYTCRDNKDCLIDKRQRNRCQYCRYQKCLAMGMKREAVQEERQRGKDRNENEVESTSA
# T3: RAR-DBD-KEK-S-EE
# T3 chain: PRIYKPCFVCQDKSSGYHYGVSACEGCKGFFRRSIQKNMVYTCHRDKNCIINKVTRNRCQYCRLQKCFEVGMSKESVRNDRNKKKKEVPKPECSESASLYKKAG
# T4: RAR-PLCgNSH2-HA-EE
# T4 chain: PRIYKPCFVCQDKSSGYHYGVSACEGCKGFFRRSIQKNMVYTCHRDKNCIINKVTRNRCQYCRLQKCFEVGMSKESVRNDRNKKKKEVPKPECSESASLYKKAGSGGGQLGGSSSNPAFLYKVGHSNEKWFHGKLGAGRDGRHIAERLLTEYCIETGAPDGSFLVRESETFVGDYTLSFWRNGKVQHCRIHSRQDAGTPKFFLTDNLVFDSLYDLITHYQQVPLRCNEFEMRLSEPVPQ
# What was measured:
# [1] = target: T1, RXR-DBD-EKE-MYC + RAR-DBD-KEK-S-EE …; assay: ELONA; antibody-captured detectors, streptavidin-HRP readout, RT; details: tags: GST, label: 5'-biotin
# Description: (§1) Method: 96-well microtiter plates were coated with a-EE (Y) and a-MYC (Y) at 10 ng/μl in 100 mM NaHCO3/Na2CO3 (pH 9.6). Excess antibody was removed and wells were blocked using 3% BSA. The biodetectors were then captured in the well as indicated in figures followed by the addition of 50 μl/well of biotinylated-DR5 DNA sequence (BIO-DR5, 5 pmol/μl). Control for specificity is the non-consensus oligo (BIO-non consensus) and un-biotinylated DR5 (competitor) to establish signal specificity. Washes were performed at each step to assure the removal of unbound reagents. Streptavidin-HRP was incubated for 30 min at RT, and after three washes, binding was assessed using TMB substrate. Absorbance was measured at 450 nm. Samples are in duplicate.
# (§2) ELISA assays were carried out by coating 500 ng of α-MYC and α-EE antibodies diluted in 100 mM bicarbonate buffer (50 ul/well, pH 9.6). Antibodies were coated for 2 h at RT in a microtiter plate (MaxiSorp, Nunc). The wells were then washed once with 200 ul of PBS buffer (pH 7.3) and incubated 0/N at 4° C. with 200 ul of blocking buffer (PBS+3% BSA). The biodetectors where then added at the concentration of 0.7 pmol/well (50 ul/well in 150 mM NaCl, 50 mM Tris pH 7.6, 10% glycerol and 1% BSA) and incubated for 1 h at RT. […]
# [2] = target: T2, RXR-DBD-EKE-MYC; assay: ELONA; RXR alone; monomeric RXR does not bind DR5; details: tags: GST, label: 5'-biotin
# Description: as §1, §2
# [3] = target: T3, RAR-DBD-KEK-S-EE; assay: ELONA; RAR alone; monomeric RAR does not bind DR5; details: tags: GST, label: 5'-biotin
# Description: as §1, §2
# [4] = target: RXR-Grb2SH2-MYC; assay: ELONA; single reagent alone; combined RXR/RAR required for signal; details: tags: GST, MYC-HIS; label: 5'-biotin
# Description: (§3) Streptavidin was coated for 2 h at RT in a microtiter plate (MaxiSorp, Nunc). The wells were then washed once with 200 ul of 0.8× sodium citrate buffer (0.8×SSC: 120 mM NaCl, 12 mM sodium citrate) and incubated 0/N at 4° C. with 200 μl of blocking buffer (3% BSA in 0.8×SSC). The appropriate biotinylated phospho-peptide/s were then added at the concentration of 1.2 pmol/well in 0.8×SSC with additionally 1% BSA and incubated for 1 h at RT. After washing three times with 0.8×SSC containing 0.1% Tween 20 (0.8×SSC/Tw) a blocking step was carried out using biotin at the concentration of 40 ng/well (160 pmol/well in 0.8×SSC buffer). Biotin was incubated for 10 min at RT. The wells were then washed three times with 200 ul of 0.8×SSC containing 0.1% Tween 20 and the biodetectors were then added at the concentration of 2 pmol/well (50 ul/well in 0.8×SSC buffer, 1% BSA).
# (§4) The biodetectors were incubated for 1 h at RT. After washing three times with 200 ul of 0.8×SSC/Tw, 50 μl of biotinylated-DR5 DNA sequence (Biot-DR5, 5 pmol/well in 0.8×SSC/Tw buffer, 1% BSA) were added to the wells and plates were incubated for 1 h at RT. After washing three times with 0.8×SSC/Tw, each well was incubated with Streptavidin-HRP conjugated diluted 1:3,000 in 0.8×SSC/Tw containing 1% BSA. […] The reaction was stopped by adding 100 ul of 2 M H₂SO₄ and the optical density (O.D.) was read at the wavelength of 450 nm.
# [5] = target: T4, RAR-PLCgNSH2-HA-EE; assay: as above; details: tags: GST, HA-EE-HIS; label: 5'-biotin
# Description: as §3, §4
# [6] = target: RXR-Grb2SH2-MYC + RAR-PLCgNSH2-HA-EE heterodimer; assay: ELONA; antibody- or bis-phosphopeptide-captured; peptide assay in 0.8xSSC, RT; details: tags: GST, MYC-HIS (RXR), label: 5'-biotin
binder,measurement,setting,value
BIO-DR5 (dsDNA) DNA 1: TGGTATCTAGTTATTGCTCAGCGTGCCAGGTCACCGAAAGGTCAGAG DNA 2: CTCTGACCTTTCGGTGACCTGGCACGCTGAGCAATAACTAGATACCA,binding result,[1],binds
same,binding result,[2],no binding
same,binding result,[3],no binding
same,binding result,[4],no binding
same,binding result,[5],no binding
same,binding result,[6],binds
